A short description of the data set: self-splicing fitness, log relative to wild type (ln ratio); higher = more splicing; Tetrahymena group I intron in knt gene, E. coli kanamycin selection, DiMSum; sequences stand for … in CUCUCU…GGAGGGAAAAGUUAUCAGGCAUGCACCUGGUAGCUAGUCUUUAAACCAAUAGAUUGCAUCGGUUUAAAAGGCAAGACCGUCAAAUUGCGGGAAAGGGGUCAACAGCCGUUCAGUACCAAGUCUCAGGGGAAACUUUGAGAUGGCCUUGCAAAGGGUAUGGUAAUAAGCUGACGGACAUGGUCCUAACCACGCAGCCAAGUCCUAAGUCAACAGAUCUUCUGUUGAUAUGGAUGCAGUUCACAGACUAAAUGUCGGUCGGGGAAGAUGUAUUCUUCUCAUAAGAUAUAGUCGGACCUCUCCUUAAUGGGAGCUAGCGGAUGAAGUGAUGCAACACUGGAGCCGCUGGGAACUAAUUUGUAUGCGAAAGUAUAUUGAUUAGUUUUGGAGUACUCGUGGUCG
Put shortly:
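DiMSum derived fitness as the error-weighted combination of fold changes across replicates, kanamycin versus no kanamycin, normalised to wild type. E. coli BL21(DE3) held the library, which randomised all eight P1ex-region intron nucleotides within the knt kanamycin-resistance gene on pET-22b(+). Six replicate transformations grew overnight at 37°C or 30°C on LB agar with or without 25 μg/mL kanamycin, also containing 100 μg/mL carbenicillin, 50 μM IPTG and 0.2% rhamnose, and pooled colonies were amplicon-sequenced on an Illumina HiSeq 2500.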

± gives the uncertainty stated by the source.

In the case of AUGUAGCAAUAUUACGCGUC, the “self-splicing fitness (ln)” value by setting is: (30 °C) -2.6 ± 0.22; (37 °C) -2.32 ± 0.3. For UUUUAGCAAUAUUACGUAUU, in that order: -3.2 ± 0.35 and -1.04 ± 0.38. Regarding AACUAGCAAUAUUACGCCAU, the “self-splicing fitness (ln)” value reads like this: (30 °C) -2.6 ± 0.15; (37 °C) -2.42 ± 0.18. For CAAGAGCAAUAUUACGUCCU, in that order: -3.32 ± 0.43 and -2.24 ± 0.29. For GCACAGCAAUAUUACGUCGC, in that order: -3.17 ± 0.13 and -1.67 ± 0.12. For GAACAGCAAUAUUACGGGUG, in that order: -1.88 ± 0.072 and -1.59 ± 0.092. AGCGAGCAAUAUUACGUCCU: the “self-splicing fitness (ln)” value was -0.026 ± 0.17 (30 °C) and -0.661 ± 0.18 (37 °C). Consider GCCCAGCAAUAUUACGGCUC, for which the “self-splicing fitness (ln)” value was -0.866 ± 0.11 (30 °C) and -0.219 ± 0.14 (37 °C).

As to CAAAAGCAAUAUUACGCCAG, the “self-splicing fitness (ln)” value (30 °C) was -0.849 ± 0.075 and the “self-splicing fitness (ln)” value (37 °C) was -1.32 ± 0.09. For CAAUAGCAAUAUUACGGUAG, in that order: -1.34 ± 0.097 and -0.488 ± 0.1. Consider CUUUAGCAAUAUUACGCGGG, for which the “self-splicing fitness (ln)” value is -3.35 ± 0.3 (30 °C) and -2.31 ± 0.32 (37 °C). For CCAGAGCAAUAUUACGCGGU, the “self-splicing fitness (ln)” value was -3.94 ± 0.23 (30 °C) and -3.14 ± 0.33 (37 °C).

As for UUAGAGCAAUAUUACGCACC, the “self-splicing fitness (ln)” value by setting is: (30 °C) -3.79 ± 0.33; (37 °C) -2.04 ± 0.4. For UCACAGCAAUAUUACGUAUG, in that order: -0.949 ± 0.063 and -1.54 ± 0.099. For CCACAGCAAUAUUACGACAC, in that order: -3.68 ± 0.29 and -1.5 ± 0.18. With CUUGAGCAAUAUUACGACAG, the “self-splicing fitness (ln)” value by setting is: (30 °C) -1.19 ± 0.1; (37 °C) -0.98 ± 0.14. As for AUGAAGCAAUAUUACGCAAA, the “self-splicing fitness (ln)” value (30 °C) was -2.25 ± 0.17 and the “self-splicing fitness (ln)” value (37 °C) is -1.31 ± 0.17.

For the sequence UCUCAGCAAUAUUACGGACU, the “self-splicing fitness (ln)” value (30 °C) was -1.23 ± 0.062 and the “self-splicing fitness (ln)” value (37 °C) is -0.345 ± 0.088. In the case of AGAGAGCAAUAUUACGUGAU, the “self-splicing fitness (ln)” value was -3.94 ± 0.18 (30 °C) and -2.1 ± 0.23 (37 °C). As for UUUCAGCAAUAUUACGCUGG, the “self-splicing fitness (ln)” value is -3.94 ± 0.3 (30 °C) and -1.77 ± 0.33 (37 °C).

With GGCAAGCAAUAUUACGAGUA, the “self-splicing fitness (ln)” value by setting is: (30 °C) -1.52 ± 0.15; (37 °C) -0.685 ± 0.13. For CGAGAGCAAUAUUACGUUUG, in that order: -4.63 ± 0.28 and -2.12 ± 0.22.

Turning to UCCGAGCAAUAUUACGACCU, the “self-splicing fitness (ln)” value (30 °C) was -3.35 ± 0.26 and the “self-splicing fitness (ln)” value (37 °C) is -2.74 ± 0.36.

As for GAUGAGCAAUAUUACGUAGG, the “self-splicing fitness (ln)” value by setting is: (30 °C) -3.76 ± 0.27; (37 °C) -1.79 ± 0.26. On to AUAAAGCAAUAUUACGGGUG, for which the “self-splicing fitness (ln)” value is, setting by setting: (30 °C) -1.03 ± 0.082; (37 °C) -0.259 ± 0.094.

Turning to UUAGAGCAAUAUUACGCUUG, the “self-splicing fitness (ln)” value is -0.891 ± 0.11 (30 °C) and 0.00726 ± 0.16 (37 °C). As for GCAAAGCAAUAUUACGAAUG, the “self-splicing fitness (ln)” value is -3.4 ± 0.15 (30 °C) and -1.77 ± 0.12 (37 °C).

Consider UCCUAGCAAUAUUACGCAGA, for which the “self-splicing fitness (ln)” value is -1.87 ± 0.2 (30 °C) and -0.401 ± 0.15 (37 °C). As for GAUCAGCAAUAUUACGAACG, the “self-splicing fitness (ln)” value was -0.118 ± 0.16 (30 °C) and 0.507 ± 0.17 (37 °C). For AUGCAGCAAUAUUACGAUCU, in that order: -0.511 ± 0.084 and 0.285 ± 0.13.

Turning to ACGGAGCAAUAUUACGUAUA, the “self-splicing fitness (ln)” value (30 °C) is -2.42 ± 0.18 and the “self-splicing fitness (ln)” value (37 °C) is -1.86 ± 0.25. For CGCGAGCAAUAUUACGCGUU, in that order: -3.07 ± 0.25 and -2.74 ± 0.34. In the case of UUAUAGCAAUAUUACGAGGC, the “self-splicing fitness (ln)” value runs as follows: (30 °C) -3.95 ± 0.37; (37 °C) -3.71 ± 0.42. As for UUUAAGCAAUAUUACGCCCU, the “self-splicing fitness (ln)” value is, setting by setting: (30 °C) -0.119 ± 0.24; (37 °C) 0.0801 ± 0.28.

Turning to GGGUAGCAAUAUUACGUCUU, the “self-splicing fitness (ln)” value was -0.106 ± 0.1 (30 °C) and 0.268 ± 0.14 (37 °C).

Take CCGCAGCAAUAUUACGGGUC: the “self-splicing fitness (ln)” value (30 °C) is -3.86 ± 0.18 and the “self-splicing fitness (ln)” value (37 °C) is -2.69 ± 0.19. For CGCUAGCAAUAUUACGACAC, in that order: -3.1 ± 0.23 and -1.33 ± 0.21. For UCAAAGCAAUAUUACGACUU, in that order: -4 ± 0.23 and -2.36 ± 0.17.

In the case of ACACAGCAAUAUUACGGGUC, the “self-splicing fitness (ln)” value by setting is: (30 °C) -4.34 ± 0.21; (37 °C) -2.17 ± 0.13.

As to GGGAAGCAAUAUUACGCUUC, under “30 °C”, the “self-splicing fitness (ln)” value is -3.32 ± 0.4. Regarding UCUCAGCAAUAUUACGACCA, the “self-splicing fitness (ln)” value runs as follows: (30 °C) -0.757 ± 0.13; (37 °C) -0.615 ± 0.14. Regarding ACUUAGCAAUAUUACGGAGC, the “self-splicing fitness (ln)” value (30 °C) was -3.46 ± 0.3 and the “self-splicing fitness (ln)” value (37 °C) is -0.469 ± 0.18. For UGAAAGCAAUAUUACGGGAA, in that order: -2.6 ± 0.14 and -1.62 ± 0.12. For GACCAGCAAUAUUACGCGUA, the “self-splicing fitness (ln)” value (30 °C) was -0.76 ± 0.059 and the “self-splicing fitness (ln)” value (37 °C) was -0.392 ± 0.068. For CGUAAGCAAUAUUACGGCGU, in that order: -2.28 ± 0.15 and -1.59 ± 0.23. UCUUAGCAAUAUUACGGAGG: the “self-splicing fitness (ln)” value was -2.67 ± 0.34 (30 °C) and -2.17 ± 0.31 (37 °C). For CUUCAGCAAUAUUACGAGGU, in that order: -4.39 ± 0.42 and -2.9 ± 0.27. As to CGAAAGCAAUAUUACGCACG, the “self-splicing fitness (ln)” value runs as follows: (30 °C) -3.27 ± 0.17; (37 °C) -2.03 ± 0.15. For AGGCAGCAAUAUUACGACGC, in that order: -0.638 ± 0.12 and -0.663 ± 0.14. On to AAUGAGCAAUAUUACGUAGC, for which the “self-splicing fitness (ln)” value (30 °C) was -2.91 ± 0.2 and the “self-splicing fitness (ln)” value (37 °C) is -2.05 ± 0.36.

CGCGAGCAAUAUUACGUUUU: the “self-splicing fitness (ln)” value (30 °C) is -4.56 ± 0.46 and the “self-splicing fitness (ln)” value (37 °C) was -2.17 ± 0.2.

With GACAAGCAAUAUUACGACCC, the “self-splicing fitness (ln)” value (30 °C) is 0.926 ± 0.23 and the “self-splicing fitness (ln)” value (37 °C) is -0.477 ± 0.39. For CGUGAGCAAUAUUACGGUUU, in that order: -3.81 ± 0.18 and -3.28 ± 0.22. With CGCCAGCAAUAUUACGCAGU, the “self-splicing fitness (ln)” value (30 °C) is -4.04 ± 0.18 and the “self-splicing fitness (ln)” value (37 °C) was -2.18 ± 0.16. For CUUCAGCAAUAUUACGAUAA, in that order: -2.68 ± 0.19 and -1.07 ± 0.14. Take AUACAGCAAUAUUACGAUCG: the “self-splicing fitness (ln)” value is, setting by setting: (30 °C) -0.733 ± 0.071; (37 °C) -0.839 ± 0.097.

Turning to AGCUAGCAAUAUUACGCUGC, the “self-splicing fitness (ln)” value (30 °C) is -3.59 ± 0.48.

In the case of CUUUAGCAAUAUUACGAUCG, the “self-splicing fitness (ln)” value was 0.191 ± 0.17 (30 °C) and 0.476 ± 0.22 (37 °C).

As to UUCGAGCAAUAUUACGGAAG, the “self-splicing fitness (ln)” value is, setting by setting: (30 °C) -2.42 ± 0.22; (37 °C) -2.12 ± 0.4. As for CGACAGCAAUAUUACGUGCG, the “self-splicing fitness (ln)” value (30 °C) was -4.12 ± 0.17 and the “self-splicing fitness (ln)” value (37 °C) was -2.5 ± 0.19. For GCGAAGCAAUAUUACGGAUA, in that order: -1.76 ± 0.12 and -0.933 ± 0.12. For the sequence AUACAGCAAUAUUACGUCCU, the “self-splicing fitness (ln)” value runs as follows: (30 °C) -0.382 ± 0.073; (37 °C) 1.06 ± 0.096.

Consider UAAGAGCAAUAUUACGUAUA, for which the “self-splicing fitness (ln)” value was -2.64 ± 0.26 (30 °C) and -1.97 ± 0.25 (37 °C).

For the sequence UGCGAGCAAUAUUACGUCGA, the “self-splicing fitness (ln)” value is, setting by setting: (30 °C) -2.22 ± 0.16; (37 °C) -1.85 ± 0.2.

As to GCGUAGCAAUAUUACGACAG, the “self-splicing fitness (ln)” value (30 °C) was -2.66 ± 0.48 and the “self-splicing fitness (ln)” value (37 °C) is -0.456 ± 0.44. Take UGCCAGCAAUAUUACGGAGA: the “self-splicing fitness (ln)” value (30 °C) is -1.47 ± 0.096 and the “self-splicing fitness (ln)” value (37 °C) is -0.852 ± 0.098.

As for CGGAAGCAAUAUUACGAGCC, the “self-splicing fitness (ln)” value by setting is: (30 °C) -2.13 ± 0.23; (37 °C) -0.454 ± 0.22. For UGAAAGCAAUAUUACGGUCU, in that order: -0.0503 ± 0.077 and -0.209 ± 0.085. For GUGCAGCAAUAUUACGGCUA, in that order: -0.0246 ± 0.077 and 0.17 ± 0.096.

With AAAAAGCAAUAUUACGAAUC, the “self-splicing fitness (ln)” value by setting is: (30 °C) -2.31 ± 0.21; (37 °C) -2.21 ± 0.23.

For ACUUAGCAAUAUUACGGUUC, the “self-splicing fitness (ln)” value is -2.73 ± 0.16 (30 °C) and -3.35 ± 0.26 (37 °C).

Consider GAGUAGCAAUAUUACGUGCU, for which the “self-splicing fitness (ln)” value reads like this: (30 °C) -3.42 ± 0.19; (37 °C) -2.31 ± 0.2. For the sequence UUACAGCAAUAUUACGCUCA, the “self-splicing fitness (ln)” value (30 °C) is -0.512 ± 0.12 and the “self-splicing fitness (ln)” value (37 °C) is -0.224 ± 0.13. For UUUUAGCAAUAUUACGCUUG, in that order: -0.327 ± 0.2 and -0.13 ± 0.19.

On to GGCGAGCAAUAUUACGGCGG, for which the “self-splicing fitness (ln)” value (30 °C) is -2 ± 0.39 and the “self-splicing fitness (ln)” value (37 °C) is -1.28 ± 0.37.

The values above are taken from the supplement of paper PMC7877785.
